Laboratory results as given in US20140342918.

test system: Vesicular stomatitis virus (whole virion) (Vesicular stomatitis virus)

Sequence | binding signal (ohm (RCTV-RCTB))
CTCCTCTGACTGTAACCACGNNNNNNNNNNNNNNNNNNNNNNNNNNNNNNNNNNNNNNNGGCTTCTGGACTACCTATGC [Pool 10] | 182
CTCCTCTGACTGTAACCACGTACCACCCGTGGCCCTCACATCCCTCCTCTGTTCTCCGCGGGCTTCTGGACTACCTATGC [SwAp7] | 1770
CTCCTCTGACTGTAACCACGCGCCCTCAGAACTTTTGTATCCGAACACCTGCATCGTCCGGGCTTCTGGACTACCTATGC [SwAp1] | 1040
CTCCTCTGACTGTAACCACGGCACCCCGAGGCAATTTCGCGCATAGTTCATCCTGTTTGGGGCTTCTGGACTACCTATGC [SwAp15] | 930
CTCCTCTGACTGTAACCACGTGCCCCCTCCATCCCGAGTAACCTACGTCCATGTCTCGCTGGCTTCTGGACTACCTATGC [SwAp4] | 955
CTCCTCTGACTGTAACCACGTACCACCCGTGGCCCTCACATCCCTCCTCTGTTCTCCGCGGGCTTCTGGACTACCTATGC [SwAp9] | 1180
CTCCTCTGACTGTAACCACGTACCACCCGTGACCCTCACATCCCTCCTCTGTTCTCCGCGGGCTTCTGGACTACCTATGC [SwAp13] | 1980
CTCCTCTGACTGTAACCACGTACCACCCGTGACCCTCACATCCCTCCTCTGTTCTCCGCGGGCTTCTGGACTACCTATGC [SwAp5] | 838
CTCCTCTGACTGTAACCACGTACCACCCGTGACGCGCACATCCCTCCTCTGTTCTCCGCGGGCTTCTGGACTACCTATGC [SwAp2] | 1420
CTCCTCTGACTGTAACCACGTACCGCCCGTGACCCTCACATCCCTCCTCTGTTCTCCGCGGGCTTCTGGACTACCTATGC [SwAp10] | 3720
CTCCTCTGACTGTAACCACGTACCACCCGTGACCCTCACATCCCTCCTCTGACGTAACCACGCGGGCTTCTGGACTACCTATGC [SwAp8] | 1680
CTCCTCTGACTGTAACCACGTACCACCCGTGACCCTTACATCCCTCCTCTGTTCTCCGCGGGCTTCTGGACTACCTATGC [SwAp12] | 2180
CTCCTCTGACTGTAACCACGTACCACCCTTGACCCTCACATCCCTCCTCTGTTCTCCGCGGGCTTCTGGACTACCTATGC [SwAp14] | 709
CTCCTCTGACTGTAACCACGTGGCACTGTTGTCATCACTGTCCCCCCCTAACTCGTCCGTGGCTTCTGGACTACCTATGC [SwAp6] | 1290
TCCTCTGACTGTAACCACGCAGCCACCATACTGTCCCGTTTGCCCCCGCCGATTCCGTCGGCTTCTGGACTACCTATGC [SwAp11] | 373
CTCCTCTGACTGTAACCACGTGCCCCCTCCATCCCGAGTAACCTACGTCCATGTCTCGCTGGCTTCTGGACTACCTATGC [SwAp3] | 803
